According to publication PMC12726774, “HAEEPGP Peptide Efficiently Prevents Alzheimer's Disease Pathology in Vivo” (Alzheimer's & Dementia, 2025):

Molecular target: beta-amyloid (Aβ) peptide
Assay: ITC; isothermal titration calorimetry of HAEEPGP with Aβ peptides; also with zinc ions, which enhanced the interaction; which peptide was titrated, buffer and temperature not told
Settings: both partners purified

Kd: 1.64 µM
B1: HAEEPGP peptide (peptide)
peptide: HAEEPGP
notes: HAEE tetrapeptide with PGP amino acids added to its C-terminus to stabilize the peptide; The 125I label was used for pharmacokinetics only, not for the calorimetry
